The results in this text go back to paper PMC10338343, “Relaxed targeting rules help PIWI proteins silence transposons”.

In this data set the target is MIWI (Mus musculus, UniProt Q9JMB7 1-862). Nature of the data set: double-filter binding; piRNA-1 guide; 3.5 mM Mg2+; RBNS: 25 mM HEPES-KOH pH 7.9, 110 mM KOAc, 3.5 mM MgOAc, 0.01% Triton X-100, 2 mM DTT, 10% glycerol, 2.5 mg/ml BSA, 0.5 mg/ml yeast tRNA, 100 nM RNA library, 33 C 2 h; double-filter: 30 mM HEPES-KOH pH 7.5, 120 mM KOAc, 3.5 mM MgOAc, 2 mM DTT, 0.01% Triton X-100, 0.1 nM target, 33 C 2 h. Particulars: protein: recombinant, tags: SNAP, 3xFlag, label: 5' 32P.
Chain of MIWI (Q9JMB7 whole entry): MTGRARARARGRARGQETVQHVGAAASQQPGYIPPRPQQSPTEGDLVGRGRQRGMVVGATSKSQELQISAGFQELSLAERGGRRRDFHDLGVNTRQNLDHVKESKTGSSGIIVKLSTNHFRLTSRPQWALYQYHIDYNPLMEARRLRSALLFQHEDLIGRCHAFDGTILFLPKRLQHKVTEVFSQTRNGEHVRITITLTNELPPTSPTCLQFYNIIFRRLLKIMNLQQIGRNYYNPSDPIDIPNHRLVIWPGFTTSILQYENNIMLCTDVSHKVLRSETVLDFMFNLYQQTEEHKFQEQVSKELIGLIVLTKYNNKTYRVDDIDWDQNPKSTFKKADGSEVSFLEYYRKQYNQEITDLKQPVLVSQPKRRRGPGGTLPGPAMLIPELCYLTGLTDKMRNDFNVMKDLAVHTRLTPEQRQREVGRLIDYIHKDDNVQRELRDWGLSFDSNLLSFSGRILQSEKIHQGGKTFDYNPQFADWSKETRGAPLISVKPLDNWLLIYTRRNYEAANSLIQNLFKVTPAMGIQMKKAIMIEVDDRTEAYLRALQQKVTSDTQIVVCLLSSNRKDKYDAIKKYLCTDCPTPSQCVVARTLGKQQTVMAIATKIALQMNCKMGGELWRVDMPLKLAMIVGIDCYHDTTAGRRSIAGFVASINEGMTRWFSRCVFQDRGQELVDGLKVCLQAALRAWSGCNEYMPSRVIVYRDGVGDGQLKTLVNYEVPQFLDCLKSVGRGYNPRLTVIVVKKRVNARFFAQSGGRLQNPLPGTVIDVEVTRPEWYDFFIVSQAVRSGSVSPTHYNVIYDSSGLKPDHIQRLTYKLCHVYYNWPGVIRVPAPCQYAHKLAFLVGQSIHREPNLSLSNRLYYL

As for AAAAAAAAAAAAAAAAAAAAUACUACCUCA (ssRNA, 5' monophosphate) [piRNA-1 g2-g10 target], the Kd (target pairs to guide g2-g10) was 0.014 ± 0.009 nM.

For the molecule AAAAAAAAAAAAAAACAACCUACAAAAAAA (ssRNA, 5' monophosphate) [piRNA-1 g8-g16 target], under “target pairs to guide g8-g16”, the equilibrium dissociation constant (Kd) came out at 0.08 ± 0.02 nM.
